Our source for the Kd values is article doi:10.1101/2020.09.10.281741.

As usually defined, the Kd is the free concentration of one partner at which half of the binding sites on the other are occupied at equilibrium, for simple one-to-one binding.

Test [1] concerns the target Glc-HMW1ct (glycosylated HMW1ct, mixture of 7,8,9,10-Glc glycoforms) (H. influenzae). As to the kind of experiment: SPR. On the technique in general: In SPR one partner is held on a chip, and binding of the other changes the refractive index at the surface.
The target in test [2] is His6-HMW1ct (C-terminal region of the HMW1A adhesin of H. influenzae, non-glycosylated) (H. influenzae). Kind of test: SPR.

As to “ApNGT-His6 (N-glycosyltransferase from Actinobacillus pleuropneumoniae) (from UniProt A3N2T3 1-620) (enzyme)”, the equilibrium dissociation constant (Kd) was determined as 9.81 µM in test [1] and 5.85 µM in test [2].
